Reference: patent US20090123940A1 (Johns Hopkins, published 2009)

Key:
[1] = molecular target: T1, HA-GluR6 (GluR6 with an N-terminal HA tag) (UniProt P42260 32-908); assay: co-IP from co-transfected HEK 293T cells
T1 construct: mature; also called wildtype HA GluR6

[2] = molecular target: metabotropic glutamate receptor mGluR5 (UniProt P31424 21-1203, limits assumed); assay: biochemical assays, not described further
[3] = molecular target: T2, neuronal glutamate transporter EAAC1 (UniProt P51907 1-523); assay: co-clustering in co-transfected 293 cells, immunostaining
T2 construct: whole, on cells
T2 sequence (looked up): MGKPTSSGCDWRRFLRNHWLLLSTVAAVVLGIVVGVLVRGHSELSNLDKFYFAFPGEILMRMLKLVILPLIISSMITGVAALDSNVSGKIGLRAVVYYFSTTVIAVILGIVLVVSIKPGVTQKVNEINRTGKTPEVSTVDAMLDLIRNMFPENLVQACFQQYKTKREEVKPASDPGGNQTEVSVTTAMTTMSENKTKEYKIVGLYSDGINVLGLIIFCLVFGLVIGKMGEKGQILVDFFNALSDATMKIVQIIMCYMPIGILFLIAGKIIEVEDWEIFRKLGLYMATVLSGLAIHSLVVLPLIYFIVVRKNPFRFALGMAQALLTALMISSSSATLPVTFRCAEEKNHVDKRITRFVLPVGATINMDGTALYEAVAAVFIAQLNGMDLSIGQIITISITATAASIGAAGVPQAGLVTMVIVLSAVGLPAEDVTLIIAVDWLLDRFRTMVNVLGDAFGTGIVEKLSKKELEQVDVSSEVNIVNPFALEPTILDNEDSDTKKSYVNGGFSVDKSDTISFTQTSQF

[4] = molecular target: T3, kainate receptor subunit GluR6 (UniProt P42260 32-908, limits assumed); assay: as above
T3 construct: whole, on cells

[5] = molecular target: T4, NMDA receptor subunit NR1 (UniProt P35439 19-938); assay: as above
T4 construct: whole, on cells

[6] = molecular target: T5, NMDA receptor subunits NR1 and NR2A (UniProt P35439 19-938; Q00959 23-1464); assay: as above
T5 construct: whole, on cells; Co-expressed in 293 cells; also called NR1/2A

[7] = molecular target: T6, EC1 domain of GluR6 (display construct) (UniProt P42260 32-561, limits assumed); assay: co-clustering on transfected cells
T6 construct: domain: EC1 domain
T6 sequence (looked up): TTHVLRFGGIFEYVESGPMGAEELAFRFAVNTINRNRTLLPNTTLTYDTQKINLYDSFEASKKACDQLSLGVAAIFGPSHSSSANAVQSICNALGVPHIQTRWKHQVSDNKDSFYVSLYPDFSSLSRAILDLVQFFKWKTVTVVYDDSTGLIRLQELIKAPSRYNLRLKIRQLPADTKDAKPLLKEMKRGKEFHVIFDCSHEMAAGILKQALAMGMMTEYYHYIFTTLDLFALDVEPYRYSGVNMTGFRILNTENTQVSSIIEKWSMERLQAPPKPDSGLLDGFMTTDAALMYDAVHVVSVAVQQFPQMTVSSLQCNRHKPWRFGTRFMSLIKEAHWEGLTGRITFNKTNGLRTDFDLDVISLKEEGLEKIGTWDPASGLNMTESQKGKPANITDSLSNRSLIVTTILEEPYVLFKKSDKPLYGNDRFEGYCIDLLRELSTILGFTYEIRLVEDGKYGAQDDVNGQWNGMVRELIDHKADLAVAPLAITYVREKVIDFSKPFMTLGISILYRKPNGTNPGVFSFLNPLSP

Measured: binding result

Chain of metabotropic glutamate receptor mGluR5 (P31424 21-1203 limits assumed): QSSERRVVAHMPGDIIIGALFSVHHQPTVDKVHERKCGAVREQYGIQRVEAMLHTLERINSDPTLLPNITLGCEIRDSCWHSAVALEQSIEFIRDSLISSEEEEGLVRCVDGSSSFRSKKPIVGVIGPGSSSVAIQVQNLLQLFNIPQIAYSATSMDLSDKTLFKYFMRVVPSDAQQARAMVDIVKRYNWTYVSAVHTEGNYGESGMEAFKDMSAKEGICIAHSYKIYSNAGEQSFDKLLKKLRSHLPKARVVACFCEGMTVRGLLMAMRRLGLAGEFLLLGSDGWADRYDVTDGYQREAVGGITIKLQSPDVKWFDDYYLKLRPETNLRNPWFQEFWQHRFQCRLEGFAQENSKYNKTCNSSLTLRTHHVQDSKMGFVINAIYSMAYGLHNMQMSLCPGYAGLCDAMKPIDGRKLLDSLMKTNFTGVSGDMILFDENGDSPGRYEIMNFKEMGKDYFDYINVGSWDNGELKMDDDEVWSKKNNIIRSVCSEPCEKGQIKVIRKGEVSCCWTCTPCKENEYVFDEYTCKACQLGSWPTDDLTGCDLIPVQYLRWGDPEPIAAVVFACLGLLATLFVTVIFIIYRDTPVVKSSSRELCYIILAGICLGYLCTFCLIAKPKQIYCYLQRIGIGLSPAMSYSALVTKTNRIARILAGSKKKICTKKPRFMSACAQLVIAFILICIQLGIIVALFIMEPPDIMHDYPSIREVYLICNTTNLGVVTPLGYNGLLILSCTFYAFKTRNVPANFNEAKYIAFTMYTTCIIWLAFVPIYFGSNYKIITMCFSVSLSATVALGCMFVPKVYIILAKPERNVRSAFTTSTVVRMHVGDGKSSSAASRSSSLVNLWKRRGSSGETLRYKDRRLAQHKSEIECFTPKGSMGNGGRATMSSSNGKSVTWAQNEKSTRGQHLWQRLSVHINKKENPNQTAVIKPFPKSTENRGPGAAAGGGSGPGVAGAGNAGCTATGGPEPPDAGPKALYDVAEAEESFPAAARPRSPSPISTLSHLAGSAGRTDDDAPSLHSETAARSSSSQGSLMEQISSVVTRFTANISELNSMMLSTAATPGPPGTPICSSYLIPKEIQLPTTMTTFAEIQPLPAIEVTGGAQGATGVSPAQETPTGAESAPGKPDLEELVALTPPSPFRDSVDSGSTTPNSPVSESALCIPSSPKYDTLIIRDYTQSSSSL

B1: Neuronal activity regulated pentraxin (Narp) (ligand)
chain: QAQDNPIPGSRFVCTALPPEAARAGCPLPAMPMQGGALSPEEELRAAVLHWRETVVQQKETLGAQREAIRELTSKLARCEGLAGGKARGTGATGKDTMGDLPRDPGHVVEQLSRSLQTLKDRLESLELQLHTNASNAGLPSDFREVLQRRLGELERQLLRKVAELEDEKSLLHNETSAHRQKTENTLNALLQRVTELERGNSAFKSPDAFKVSLPLRTNYLYGKIKKTLPELYAFTICLWLRSSASPGIGTPFSYAVPGQANEIVLIEWGNNPIELLINDKVAQLPLFVSDGKWHHICITWTTRDGMWEAFQDGEKLGTGENLAPWHPIKPGGVLILGQEQDTVGGRFDATQAFVGELSQFNIWDRVLRAQEIINIANCSTNMPGNIIPWVDNNVDVFGGASKWPVETCEERLLDL
notes: Secreted, glycosylated, disulfide-linked multimer (>220 kDa on non-reducing gels); The signal peptide is called putative; also called neuronal pentraxin 2; untagged Narp
no binding: [1] | [2] | [3] | [4] | [5] | [6] | [7]
